Source: US20240132578A1

Key:
Assay in all cases: cell-based or functional assay
[1] = target: aMLV envelope protein on pseudovirus (negative control virus)
[2] = target: HIV-1 94UG103 envelope glycoprotein (Env) on pseudovirus (HIV-1)
[3] = target: HIV-1 JRCSF envelope glycoprotein (Env) on pseudovirus (HIV-1) (UniProt P20871)
[4] = target: HIV-1 92TH021 envelope glycoprotein (Env) on pseudovirus (HIV-1)
[5] = target: HIV-1 MGRM-AG-005 envelope glycoprotein (Env) on pseudovirus (HIV-1)
[6] = target: HIV-1 MGRM-D-018 envelope glycoprotein (Env) on pseudovirus (HIV-1)
[7] = target: HIV-1 MGRM-C-026 envelope glycoprotein (Env) on pseudovirus (HIV-1)
[8] = target: HIV-1 APV13 envelope glycoprotein (Env) on pseudovirus (HIV-1)
[9] = target: HIV-1 93UG077 envelope glycoprotein (Env) on pseudovirus (HIV-1)
[10] = target: HIV-1 MGRM-C-028 envelope glycoprotein (Env) on pseudovirus (HIV-1)
[11] = target: HIV-1 MGRM-C-027 envelope glycoprotein (Env) on pseudovirus (HIV-1)
[12] = target: HIV-1 MGRM-D-001 envelope glycoprotein (Env) on pseudovirus (HIV-1)
[13] = target: HIV-1 92UG024 envelope glycoprotein (Env) on pseudovirus (HIV-1)
[14] = target: panel of 22 HIV-1 pseudoviruses of Table 52
[15] = target: HIV-1 APV6 envelope glycoprotein (Env) on pseudovirus (HIV-1)
[16] = target: HIV-1 CMU02 envelope glycoprotein (Env) on pseudovirus (HIV-1)
[17] = target: HIV-1 JRFL envelope glycoprotein (Env) on pseudovirus (HIV-1)
[18] = target: HIV-1 APV17 envelope glycoprotein (Env) on pseudovirus (HIV-1)
[19] = target: HIV-1 MGRM-A-010 envelope glycoprotein (Env) on pseudovirus (HIV-1)
[20] = target: HIV-1 NL43 envelope glycoprotein (Env) on pseudovirus (HIV-1)
[21] = target: HIV-1 92UG005 envelope glycoprotein (Env) on pseudovirus (HIV-1)
[22] = target: HIV-1 93IN905 envelope glycoprotein (Env) on pseudovirus (HIV-1)
[23] = target: HIV-1 92BR020 envelope glycoprotein (Env) on pseudovirus (HIV-1)
[24] = target: HIV-1 92RW020 envelope glycoprotein (Env) on pseudovirus (HIV-1)

B1: PGT-135 (5343_B08; 5344_E16) (antibody, V domains shown)
VH: QLQMQESGPGLVKPSETLSLSCTVSGDSIRGGEWGDKDYHWGWVRHSAGKGLEWIGSIHWRGTTHYKESLRRRVSMSIDTSRNWFSLRLASVTAADTAVYFCARHRHHDVFMLVPIAGWFDVWGPGVQVTVSS
VL: EIVMTQSPDTLSVSPGETVTLSCRASQNINKNLAWYQYKPGQSPRLVIFETYSKIAAFPARFVASGSGTEFTLTINNMQSEDVAVYYCQQYEEWPRTFGQGTKVDIK
[1]
  IC50, pseudovirus neutralization: > 10 µg/mL
[2]
  IC50, pseudovirus neutralization: > 10 µg/mL
[3]
  IC50, pseudovirus neutralization: 0.113 µg/mL
[4]
  IC50, pseudovirus neutralization: > 10 µg/mL
[5]
  IC50, pseudovirus neutralization: > 10 µg/mL
[6]
  IC50, pseudovirus neutralization: 0.0433 µg/mL
[7]
  IC50, pseudovirus neutralization: 12.3 ng/mL
[8]
  IC50, pseudovirus neutralization: 0.545 µg/mL
[9]
  IC50, pseudovirus neutralization: > 10 µg/mL
[10]
  IC50, pseudovirus neutralization: 2.16 µg/mL
[11]
  IC50, pseudovirus neutralization: > 10 µg/mL
[12]
  IC50, pseudovirus neutralization: > 10 µg/mL
[13]
  IC50, pseudovirus neutralization: 0.0139 µg/mL
[14]
  % neutralized: 54%
  median IC50, pseudovirus neutralization: 0.11 µg/mL
[15]
  IC50, pseudovirus neutralization: > 10 µg/mL
[16]
  IC50, pseudovirus neutralization: > 10 µg/mL
[17]
  IC50, pseudovirus neutralization: > 10 µg/mL
[18]
  IC50, pseudovirus neutralization: > 10 µg/mL
[19]
  IC50, pseudovirus neutralization: > 10 µg/mL
[20]
  IC50, pseudovirus neutralization: 6.79 µg/mL
[21]
  IC50, pseudovirus neutralization: > 10 µg/mL
[22]
  IC50, pseudovirus neutralization: 0.0183 µg/mL

B2: 5147_N06 (PGT-130) human monoclonal antibody (antibody, V domains shown)
VH: QVQLQESGPGLVKPAETLSLTCSVSGESINTGHYYWGWVRQVPGKGLEWIGHIHYTTAVLHNPSLKSRLTIKIYTLRNQITLRLSNVTAADTAVYHCVRSGGDILYYYEWQKPHWFSPWGPGIHVTVSS
VL: QSALTQPPSASGSLGQSVTISCNGTSSDIGGWNFVSWYQQFPGRAPRLIIFEVNKRPSGVPGRFSGSKSGNSASLTVSGLQSDDEGQYFCSSLFGRWDVVFGGGTKLTVL
[1]
  IC50, neutralization of pseudovirus: > 10 µg/mL
  IC80, neutralization of pseudovirus: > 10 µg/mL
  IC90 (neutralization of pseudovirus): > 10 µg/mL
  IC95, neutralization of pseudovirus: > 10 µg/mL
[2]
  IC50, neutralization of pseudovirus: 0.635 µg/mL
  IC80, neutralization of pseudovirus: > 10 µg/mL
  IC90 (neutralization of pseudovirus): > 10 µg/mL
  IC95, neutralization of pseudovirus: > 10 µg/mL
[3]
  IC50, neutralization of pseudovirus: 8.9 ng/mL
  IC80, neutralization of pseudovirus: 0.0317 µg/mL
  IC90 (neutralization of pseudovirus): 0.0669 µg/mL
  IC95, neutralization of pseudovirus: 0.134 µg/mL
[4]
  IC50, neutralization of pseudovirus: 8.2 ng/mL
  IC80, neutralization of pseudovirus: 0.0261 µg/mL
  IC90 (neutralization of pseudovirus): 0.0513 µg/mL
  IC95, neutralization of pseudovirus: 0.0963 µg/mL
[5]
  IC50, neutralization of pseudovirus: 0.947 µg/mL
  IC80, neutralization of pseudovirus: > 10 µg/mL
  IC90 (neutralization of pseudovirus): > 10 µg/mL
  IC95, neutralization of pseudovirus: > 10 µg/mL
[6]
  IC50, neutralization of pseudovirus: 0.0378 µg/mL
  IC80, neutralization of pseudovirus: 0.289 µg/mL
  IC90 (neutralization of pseudovirus): 2.31 µg/mL
  IC95, neutralization of pseudovirus: > 10 µg/mL
[7]
  IC50, neutralization of pseudovirus: 0.0173 µg/mL
  IC80, neutralization of pseudovirus: 0.263 µg/mL
  IC90 (neutralization of pseudovirus): 1.32 µg/mL
  IC95, neutralization of pseudovirus: 6.13 µg/mL
[8]
  IC50, neutralization of pseudovirus: 0.0345 µg/mL
  IC80, neutralization of pseudovirus: 0.573 µg/mL
  IC90 (neutralization of pseudovirus): 2.88 µg/mL
  IC95, neutralization of pseudovirus: > 10 µg/mL
[9]
  IC50, neutralization of pseudovirus: > 10 µg/mL
  IC80, neutralization of pseudovirus: > 10 µg/mL
  IC90 (neutralization of pseudovirus): > 10 µg/mL
  IC95, neutralization of pseudovirus: > 10 µg/mL
[10]
  IC50, neutralization of pseudovirus: > 10 µg/mL
  IC80, neutralization of pseudovirus: > 10 µg/mL
  IC90 (neutralization of pseudovirus): > 10 µg/mL
  IC95, neutralization of pseudovirus: > 10 µg/mL
[11]
  IC50, neutralization of pseudovirus: 5.2 ng/mL
  IC80, neutralization of pseudovirus: 0.0318 µg/mL
  IC90 (neutralization of pseudovirus): 0.106 µg/mL
  IC95, neutralization of pseudovirus: 0.464 µg/mL
[12]
  IC50, neutralization of pseudovirus: > 10 µg/mL
  IC80, neutralization of pseudovirus: > 10 µg/mL
  IC90 (neutralization of pseudovirus): > 10 µg/mL
  IC95, neutralization of pseudovirus: > 10 µg/mL
[13]
  IC50, neutralization of pseudovirus: > 10 µg/mL
  IC80, neutralization of pseudovirus: > 10 µg/mL
  IC90 (neutralization of pseudovirus): > 10 µg/mL
  IC95, neutralization of pseudovirus: > 10 µg/mL
[15]
  IC50, neutralization of pseudovirus: > 10 µg/mL
  IC80, neutralization of pseudovirus: > 10 µg/mL
  IC90 (neutralization of pseudovirus): > 10 µg/mL
  IC95, neutralization of pseudovirus: > 10 µg/mL
[16]
  IC50, neutralization of pseudovirus: > 10 µg/mL
  IC80, neutralization of pseudovirus: > 10 µg/mL
  IC90 (neutralization of pseudovirus): > 10 µg/mL
  IC95, neutralization of pseudovirus: > 10 µg/mL
[23]
  IC50, neutralization of pseudovirus: 1.12 µg/mL
  IC80, neutralization of pseudovirus: > 10 µg/mL
  IC90 (neutralization of pseudovirus): > 10 µg/mL
  IC95, neutralization of pseudovirus: > 10 µg/mL
[17]
  IC50, neutralization of pseudovirus: 0.0346 µg/mL
  IC80, neutralization of pseudovirus: 0.751 µg/mL
  IC90 (neutralization of pseudovirus): 5.72 µg/mL
  IC95, neutralization of pseudovirus: > 10 µg/mL
[18]
  IC50, neutralization of pseudovirus: > 10 µg/mL
  IC80, neutralization of pseudovirus: > 10 µg/mL
  IC90 (neutralization of pseudovirus): > 10 µg/mL
  IC95, neutralization of pseudovirus: > 10 µg/mL
[19]
  IC50, neutralization of pseudovirus: 5.4 ng/mL
  IC80, neutralization of pseudovirus: 0.0251 µg/mL
  IC90 (neutralization of pseudovirus): 0.0643 µg/mL
  IC95, neutralization of pseudovirus: 0.164 µg/mL
[20]
  IC50, neutralization of pseudovirus: > 10 µg/mL
  IC80, neutralization of pseudovirus: > 10 µg/mL
  IC90 (neutralization of pseudovirus): > 10 µg/mL
  IC95, neutralization of pseudovirus: > 10 µg/mL
[24]
  IC50, neutralization of pseudovirus: 0.014 µg/mL
  IC80, neutralization of pseudovirus: 0.508 µg/mL
  IC90 (neutralization of pseudovirus): 3.68 µg/mL
  IC95, neutralization of pseudovirus: > 10 µg/mL
[21]
  IC50, neutralization of pseudovirus: 0.474 µg/mL
  IC80, neutralization of pseudovirus: > 10 µg/mL
  IC90 (neutralization of pseudovirus): > 10 µg/mL
  IC95, neutralization of pseudovirus: > 10 µg/mL
[22]
  IC50, neutralization of pseudovirus: 0.0182 µg/mL
  IC80, neutralization of pseudovirus: 0.272 µg/mL
  IC90 (neutralization of pseudovirus): 1.31 µg/mL
  IC95, neutralization of pseudovirus: 5.48 µg/mL

B3: PGT-136 (5329_C19; 5366_P21) (antibody, V domains shown)
VH: QLQLQESGPGLVKPSETLSLTCTVSGGSMRGTDWGENDFHYGWIRQSSAKGLEWIGSIHWRGRTTHYKTSFRSRATLSIDTSNNRFSLTFSFVTAADTAVYYCARHKYHDIFRVVPVAGWFDPWGQGLLVTVSS
VL: EIVMTQSPPTLSVSPGETATLSCRASQNVKNNLAWYQLKPGQAPRLLIFDASSRAGGIPDRFSGSGYGTDFTLTVNSVQSEDFGDYFCQQYEEWPRTFGQGTKVDIK
[1]
  IC50, pseudovirus neutralization: > 10 µg/mL
[2]
  IC50, pseudovirus neutralization: > 10 µg/mL
[3]
  IC50, pseudovirus neutralization: > 10 µg/mL
[4]
  IC50, pseudovirus neutralization: > 10 µg/mL
[5]
  IC50, pseudovirus neutralization: > 10 µg/mL
[6]
  IC50, pseudovirus neutralization: > 10 µg/mL
[7]
  IC50, pseudovirus neutralization: 6.5 ng/mL
[8]
  IC50, pseudovirus neutralization: > 10 µg/mL
[9]
  IC50, pseudovirus neutralization: > 10 µg/mL
[10]
  IC50, pseudovirus neutralization: > 10 µg/mL
[11]
  IC50, pseudovirus neutralization: > 10 µg/mL
[12]
  IC50, pseudovirus neutralization: > 10 µg/mL
[13]
  IC50, pseudovirus neutralization: 0.0915 µg/mL
[14]
  % neutralized: 18%
  median IC50, pseudovirus neutralization: 0.05 µg/mL
[15]
  IC50, pseudovirus neutralization: > 10 µg/mL
[16]
  IC50, pseudovirus neutralization: > 10 µg/mL
[17]
  IC50, pseudovirus neutralization: > 10 µg/mL
[18]
  IC50, pseudovirus neutralization: > 10 µg/mL
[19]
  IC50, pseudovirus neutralization: > 10 µg/mL
[20]
  IC50, pseudovirus neutralization: > 10 µg/mL
[21]
  IC50, pseudovirus neutralization: > 10 µg/mL
[22]
  IC50, pseudovirus neutralization: 0.0135 µg/mL
